From patent US8148112B2, “Sugar chain containing 4-position halogenated galactose and application thereof” (National University Corporation Hokkaido University, priority 2005, dated 2012)

Assay: Galactose-1-phosphate uridylyltransferase (GalT) activity of the enzyme liquid
Format: biochemical, E. coli
Conditions: galactose-1-phosphate uridylyltransferase activity of purified enzyme liquid, method by Takeda et al.
Method: E. coli (JM109 strain) (from Takara Bio) was transformed with a pTrc-GalT plasmid (JP-A-2002-335988) in which a gene encoding E. coli-derived GalT has been inserted. The transformed cells were inoculated to a 2×YT medium (50 mL) containing 100 μg/mL ampicillin, followed by shake culturing at 37° C. When the number of the cells reached 1×10^8 cells/mL, IPTG was added to the culture so as to adjust the final concentration to 1 mM, and shake culture was continued for further five hours. After completion of culturing, cells were collected through centrifugation (9,000×g, 20 min) and suspended in a buffer (50 mM HEPES-NaOH (pH: 8.0), 0.1 mM zinc sulfate, 10 mM 2-mercaptoethanol, and 50 mM sodium chloride) […]). The cells were disrupted through ultrasonication, and the product was centrifuged (20,000×g, 10 min), to thereby remove cell residues.
The thus-produced fraction was employed as an enzyme liquid in the following synthesis reactions. The galactose-1-phosphate uridylyltransferase (GalT) activity of the enzyme liquid was determined (Table 1). In the present invention, GalT activity was determined through a method by Takeda et al. (JP-A-2002-335988). The thus-yielded galactose-1-phosphate uridylyltransferase is identical to hexose-1-phosphate uridylyltransferase and catalyzes the same reaction (E.C.2.7.7.12).

B1: GalT: E. coli-derived galactose-1-phosphate uridylyltransferase, purified enzyme liquid (protein, UniProt P09148 1-348, looked up)
Galactose-1-phosphate …: MTQFNPVDHPHRRYNPLTGQWILVSPHRAKRPWQGAQETPAKQVLPAHDPDCFLCAGNVRVTGDKNPDYTGTYVFTNDFAALMSDTPDAPESHDPLMRCQSARGTSRVICFSPDHSKTLPELSVAALTEIVKTWQEQTAELGKTYPWVQVFENKGAAMGCSNPHPHGQIWANSFLPNEAEREDRLQKEYFAEQKSPMLVDYVQRELADGSRTVVETEHWLAVVPYWAAWPFETLLLPKAHVLRITDLTDAQRSDLALALKKLTSRYDNLFQCSFPYSMGWHGAPFNGEENQHWQLHAHFYPPLLRSATVRKFMVGYEMLAETQRDLTAEQAAERLRAVSDIHFRESGV
- Enzymatic activity: 46.7 units/mg protein
